Measurements as given in patent US20160200782A1 (MOERAE MATRIX, published 2016).

Legend:
Assay in all cases: cell-based or functional assay
Ab1(T315I)(h) = Ab1(T315I)(h) (human, UniProt P00519 27-1130, limits assumed)
CDK3/cyclinE(h) = CDK3/cyclinE(h) (human, UniProt Q00526 1-305; Q00526 1-305)
Met(D1246H)(h) = Met(D1246H)(h) (human, UniProt P08581-2 974-1408, limits assumed)
DDR2(h) = target: T1, DDR2(h) (human, UniProt Q16832 422-855, limits assumed)
T1 sequence (looked up): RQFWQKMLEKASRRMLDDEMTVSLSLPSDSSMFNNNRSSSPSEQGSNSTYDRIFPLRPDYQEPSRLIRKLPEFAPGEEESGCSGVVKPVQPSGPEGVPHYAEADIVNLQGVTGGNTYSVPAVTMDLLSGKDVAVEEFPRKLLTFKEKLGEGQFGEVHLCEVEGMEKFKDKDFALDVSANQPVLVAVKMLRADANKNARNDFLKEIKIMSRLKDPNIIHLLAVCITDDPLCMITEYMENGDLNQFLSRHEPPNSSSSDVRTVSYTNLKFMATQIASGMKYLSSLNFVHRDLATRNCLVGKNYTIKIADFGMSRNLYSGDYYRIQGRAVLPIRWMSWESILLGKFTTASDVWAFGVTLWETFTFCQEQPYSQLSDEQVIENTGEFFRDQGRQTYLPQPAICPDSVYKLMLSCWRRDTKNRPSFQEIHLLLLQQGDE

MEK1(h) = MEK1(h) (human, UniProt Q02750 1-393, limits assumed)
SAPK3(h) = target: T2, SAPK3(h) (human, UniProt P53778 1-367)
T2 sequence (looked up): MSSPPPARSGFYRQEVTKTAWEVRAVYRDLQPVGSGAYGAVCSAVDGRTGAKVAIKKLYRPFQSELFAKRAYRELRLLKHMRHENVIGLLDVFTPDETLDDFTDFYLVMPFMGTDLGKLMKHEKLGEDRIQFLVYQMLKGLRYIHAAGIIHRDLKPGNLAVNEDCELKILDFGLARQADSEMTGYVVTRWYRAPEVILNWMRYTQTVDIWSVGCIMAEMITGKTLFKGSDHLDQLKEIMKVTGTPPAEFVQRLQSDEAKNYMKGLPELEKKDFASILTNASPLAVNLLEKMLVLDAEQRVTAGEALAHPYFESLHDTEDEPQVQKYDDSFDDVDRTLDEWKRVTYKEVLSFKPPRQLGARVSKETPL

GRK7(h) = target: T3, GRK7(h) (human, UniProt Q8WTQ7 1-553, limits assumed)
T3 sequence (looked up): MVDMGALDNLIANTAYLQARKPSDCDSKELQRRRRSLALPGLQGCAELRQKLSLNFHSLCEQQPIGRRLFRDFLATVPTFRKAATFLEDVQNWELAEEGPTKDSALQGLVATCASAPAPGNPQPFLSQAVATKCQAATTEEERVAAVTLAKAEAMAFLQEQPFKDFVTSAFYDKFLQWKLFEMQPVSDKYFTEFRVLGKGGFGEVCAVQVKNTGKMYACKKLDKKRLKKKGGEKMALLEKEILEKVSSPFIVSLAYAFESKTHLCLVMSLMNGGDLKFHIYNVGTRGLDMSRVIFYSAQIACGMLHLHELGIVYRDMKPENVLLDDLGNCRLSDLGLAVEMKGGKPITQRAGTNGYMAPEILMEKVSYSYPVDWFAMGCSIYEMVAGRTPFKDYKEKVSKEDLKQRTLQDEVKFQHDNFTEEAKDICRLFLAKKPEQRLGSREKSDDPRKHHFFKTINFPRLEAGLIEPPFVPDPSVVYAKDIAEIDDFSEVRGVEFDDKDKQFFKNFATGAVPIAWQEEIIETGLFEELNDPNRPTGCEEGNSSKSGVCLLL

TAO1(h) = target: T4, TAO1(h) (human, UniProt Q7L7X3 1-320, limits assumed)
T4 sequence (looked up): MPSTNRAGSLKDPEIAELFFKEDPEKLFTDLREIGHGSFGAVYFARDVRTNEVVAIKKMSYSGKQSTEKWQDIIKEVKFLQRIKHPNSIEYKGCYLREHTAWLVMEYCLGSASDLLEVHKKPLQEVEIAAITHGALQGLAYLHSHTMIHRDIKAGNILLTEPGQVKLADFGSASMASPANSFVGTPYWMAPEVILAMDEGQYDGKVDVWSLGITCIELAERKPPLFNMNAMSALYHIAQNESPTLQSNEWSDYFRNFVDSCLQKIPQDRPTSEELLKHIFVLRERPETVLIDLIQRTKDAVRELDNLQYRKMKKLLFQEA

cKit(h) = cKit(h) (human, UniProt P10721 544-976, limits assumed)
EphA5(h) = target: T5, EphA5(h) (human, UniProt P54756 595-1037, limits assumed)
T5 sequence (looked up): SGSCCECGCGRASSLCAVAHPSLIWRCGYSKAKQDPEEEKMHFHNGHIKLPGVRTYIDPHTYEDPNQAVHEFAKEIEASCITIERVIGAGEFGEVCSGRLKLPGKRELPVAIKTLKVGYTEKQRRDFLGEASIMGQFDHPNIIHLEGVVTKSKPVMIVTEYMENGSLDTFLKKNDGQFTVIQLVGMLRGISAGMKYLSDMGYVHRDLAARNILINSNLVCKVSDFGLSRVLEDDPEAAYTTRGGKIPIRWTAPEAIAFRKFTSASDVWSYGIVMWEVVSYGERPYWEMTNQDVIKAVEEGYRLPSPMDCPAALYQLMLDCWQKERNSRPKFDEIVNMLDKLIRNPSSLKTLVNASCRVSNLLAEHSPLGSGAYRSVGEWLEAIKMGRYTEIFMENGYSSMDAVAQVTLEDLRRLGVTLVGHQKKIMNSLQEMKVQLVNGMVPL

MKK6(h) = target: T6, MKK6(h) (human, UniProt P52564 1-334, limits assumed)
T6 sequence (looked up): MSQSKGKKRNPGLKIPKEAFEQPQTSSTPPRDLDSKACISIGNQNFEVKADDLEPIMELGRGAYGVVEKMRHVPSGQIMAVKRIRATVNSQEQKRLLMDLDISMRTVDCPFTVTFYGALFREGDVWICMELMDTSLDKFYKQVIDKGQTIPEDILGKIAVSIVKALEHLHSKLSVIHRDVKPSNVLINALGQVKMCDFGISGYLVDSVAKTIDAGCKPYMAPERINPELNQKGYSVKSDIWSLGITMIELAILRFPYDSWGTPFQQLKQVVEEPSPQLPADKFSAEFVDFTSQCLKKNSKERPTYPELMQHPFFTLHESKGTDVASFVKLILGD
Further: test concentration or dose not given here.

Ab1(T315I)(h), sequence (P00519 27-1130 T315I limits assumed): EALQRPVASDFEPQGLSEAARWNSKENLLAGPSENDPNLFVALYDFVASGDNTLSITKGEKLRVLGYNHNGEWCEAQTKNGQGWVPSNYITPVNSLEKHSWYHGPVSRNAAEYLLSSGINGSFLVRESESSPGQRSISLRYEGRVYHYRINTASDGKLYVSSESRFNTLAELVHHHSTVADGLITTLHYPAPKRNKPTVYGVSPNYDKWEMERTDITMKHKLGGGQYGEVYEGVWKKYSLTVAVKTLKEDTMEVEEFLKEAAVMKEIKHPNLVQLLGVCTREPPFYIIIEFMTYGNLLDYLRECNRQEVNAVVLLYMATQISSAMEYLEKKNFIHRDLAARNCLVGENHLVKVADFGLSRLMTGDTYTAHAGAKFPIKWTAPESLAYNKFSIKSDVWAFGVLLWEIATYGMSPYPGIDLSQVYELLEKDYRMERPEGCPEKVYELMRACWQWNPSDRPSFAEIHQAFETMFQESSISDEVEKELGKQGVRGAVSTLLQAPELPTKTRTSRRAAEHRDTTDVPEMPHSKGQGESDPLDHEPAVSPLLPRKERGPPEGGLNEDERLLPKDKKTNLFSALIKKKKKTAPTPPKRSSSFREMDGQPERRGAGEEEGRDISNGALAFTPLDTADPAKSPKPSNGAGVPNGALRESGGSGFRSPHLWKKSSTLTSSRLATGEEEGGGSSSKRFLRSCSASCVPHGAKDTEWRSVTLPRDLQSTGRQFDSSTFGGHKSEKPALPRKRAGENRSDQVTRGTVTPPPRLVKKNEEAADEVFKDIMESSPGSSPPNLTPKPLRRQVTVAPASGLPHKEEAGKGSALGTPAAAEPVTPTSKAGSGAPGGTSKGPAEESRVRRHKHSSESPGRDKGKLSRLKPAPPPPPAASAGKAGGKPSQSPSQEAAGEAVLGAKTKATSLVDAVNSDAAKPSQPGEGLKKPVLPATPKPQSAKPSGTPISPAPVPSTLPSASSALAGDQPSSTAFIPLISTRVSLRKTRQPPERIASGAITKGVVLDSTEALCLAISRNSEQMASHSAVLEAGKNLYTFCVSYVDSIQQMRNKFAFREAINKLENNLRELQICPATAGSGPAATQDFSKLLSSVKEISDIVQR
CDK3/cyclinE(h), sequence (Q00526 whole entry, chain 1 of 2): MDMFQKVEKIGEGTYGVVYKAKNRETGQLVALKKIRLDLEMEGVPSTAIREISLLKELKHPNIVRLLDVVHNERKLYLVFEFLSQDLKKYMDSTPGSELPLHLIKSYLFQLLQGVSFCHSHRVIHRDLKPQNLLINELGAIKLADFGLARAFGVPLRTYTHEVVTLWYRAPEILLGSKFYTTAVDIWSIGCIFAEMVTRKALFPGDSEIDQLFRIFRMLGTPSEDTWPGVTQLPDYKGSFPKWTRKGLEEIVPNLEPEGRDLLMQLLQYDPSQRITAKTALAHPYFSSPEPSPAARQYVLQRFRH
CDK3/cyclinE(h), sequence (Q00526 whole entry, chain 2 of 2): as the sequence (Q00526 whole entry, chain 1 of 2) above
cKit(h), sequence (P10721 544-976 limits assumed): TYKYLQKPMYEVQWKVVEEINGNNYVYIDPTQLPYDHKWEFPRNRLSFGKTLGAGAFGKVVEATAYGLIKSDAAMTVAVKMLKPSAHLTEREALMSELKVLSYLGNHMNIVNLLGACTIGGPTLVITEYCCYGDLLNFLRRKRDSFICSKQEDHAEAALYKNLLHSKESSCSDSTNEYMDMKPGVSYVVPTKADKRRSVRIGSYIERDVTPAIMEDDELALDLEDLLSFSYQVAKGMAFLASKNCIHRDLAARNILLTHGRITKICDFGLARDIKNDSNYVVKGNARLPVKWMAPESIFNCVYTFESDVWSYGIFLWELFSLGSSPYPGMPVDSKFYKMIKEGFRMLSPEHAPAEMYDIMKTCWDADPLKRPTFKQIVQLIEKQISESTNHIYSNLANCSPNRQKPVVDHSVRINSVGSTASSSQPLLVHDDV

B1: MMI-0300 (peptide)
peptide: FAKLAARLYRKALARQLGVAA
Ab1(T315I)(h)
  % activity: 97%
CDK3/cyclinE(h)
  % activity: 94%
Met(D1246H)(h)
  % activity: 125%
DDR2(h)
  % activity: 94%
MEK1(h)
  % activity: 77%
SAPK3(h)
  % activity: 84%
GRK7(h)
  % activity: 122%
TAO1(h)
  % activity: 82%
cKit(h)
  % activity: 53%
EphA5(h)
  % activity: 18%
MKK6(h)
  % activity: 48%

B2: MMI-0400 (peptide)
peptide: KAFAKLAARLYRKALARQLGVAA
Ab1(T315I)(h)
  % activity: 105%
CDK3/cyclinE(h)
  % activity: 92%
Met(D1246H)(h)
  % activity: 68%
DDR2(h)
  % activity: 95%
MEK1(h)
  % activity: 77%
SAPK3(h)
  % activity: 79%
GRK7(h)
  % activity: 100%
TAO1(h)
  % activity: 73%
cKit(h)
  % activity: 43%
EphA5(h)
  % activity: 24%
MKK6(h)
  % activity: 44%
